B1: murine mAb 201D10A12C1 ("A15") (antibody, V domains shown)
VH: EVQLQQSGPVLVRPGASVKMSCKASGYAFTDFHLNWVKQSHGKSLEWIGVINPYNGGTNYNQKFKDKATLTVDKSSSTAYMELNRLTSEDSAVYYCARYYASRYGYAMDYWGQGTSVTVSS
VL: DIVMTQAAPSVPVTPGESVSISCRSSKSLLHSNGNTYLYWFLQRPGQSPQLLIYRMSNLASGVPDRFSGSGSGTAFTLRISRVEAEDVGIYYCMQHVEYPLTFGAGTKLELK
B2: murine mAb 201D10E9F2 ("A17") (antibody, V domains shown)
VH: B1 VH
VL: B1 VL
B3: murine mAb 132F3F3H11 ("A8") (antibody, V domains shown)
VH: DVQLVESGGGLVQPGGSRKLSCAASGFTFSSSGMHWVRQAPEKGLEWVAYISSGSSSIYYADTVKGRFTISRDNPKNTLFLQMTSLRSEDTAMYYCARPYYYGSIAMDYWGQGTSVTVSS
VL: DIKMTQSPSSMYASLGERVTITCKASQDINSYLSWFQQKPGKSPKTLIYRANRLVDGVPSRFSGSGSGQDYSLTISSLEYEDMGIYYCLQYDEFPFTFGSGTKLEIK

What follows are binders tested against tagged CXCR4 receptors stably expressed on recombinant CHO cells (human, UniProt P61072 1-352 (Pan troglodytes entry)) (assay: cell-based or functional assay).
Sequence of tagged CXCR4 receptors stably expressed on recombinant CHO cells (P61072 other isoform, or with tags, fused parts or gaps): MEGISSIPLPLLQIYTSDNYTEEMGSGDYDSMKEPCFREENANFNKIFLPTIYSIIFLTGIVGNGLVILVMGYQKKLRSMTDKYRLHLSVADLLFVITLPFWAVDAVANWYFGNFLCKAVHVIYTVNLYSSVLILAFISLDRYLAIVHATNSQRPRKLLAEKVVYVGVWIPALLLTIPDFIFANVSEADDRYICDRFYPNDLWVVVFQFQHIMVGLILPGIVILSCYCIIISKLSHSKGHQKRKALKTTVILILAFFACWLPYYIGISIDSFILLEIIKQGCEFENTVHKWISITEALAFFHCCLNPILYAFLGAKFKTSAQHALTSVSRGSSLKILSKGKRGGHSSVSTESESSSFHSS

| HuCXCR4 Binding IC50 (nM) (CXCR4 cAMP functional assay, antagonist mode against 5.0 nM SDF-1) | Binder |
| --- | --- |
| 1.18 | B1 |
| 1.48 | B2 |
| 0.381 | B3 |

Reference: patent US20230151104A1 (REMD BIOTHERAPEUTICS, published 2023)
